Assay: label from the status in PepcDB records

Sequence	protein production
MNNLKKYTLVAVFVFLTAVCFQHPGITSAATTITIDPDATYQTIEGWGASICWWGNQIGRWSPDNRNRLIEKIVSPTDGLGYNIFRYNIGGGDNPGHNHMRDYADIQGYQNADRSWNWNADAAQRAVLTRLIERGRYYGSEIILEAFSNSPPYWMTKSGCASGTSDGSNNLRDDCYDDFADYLTEVVKHFRDAWGITFRTLEPMNEPNSDWWKAGGRQEGCSFSYANQQRIIKEVGEKLKAKGLTGTTVSAADEASIDTALEGLQSYDATTLSYMSQLNVHSYFGSKRAQLRDLAKSKGLRIWQSESGPLSFNGDMADSCIMLSKRIVTDLKELQCVAWLDWQIIDGGNWGSIYVDDASQTFTLTEKFYMHANYSRFIRPGYTIIGANNEKTIAAISPDKKKLVIVATNDNKSSSANYTFNLTRFSGVNSTVEVYRTSPSLSLAKSIITASNKIVSDTLPPYSINTYVITLDGGVESVPAVGLQSYNYPNRYVRHADFDARIDENVTPLEDSQWRLVPGLANSSEGYVSIQSVNYPGYYLRHWDYDFRLDKNDGTTIFAEDATFKLVPGLADPSCVSFQSYNYPDRYIRHYGYLLKLERISTDLDRQDATFLIISDDSPGPITDSGYIMAYFKQAPGEYGLNLCYSTDGLHWRNINDGKPVLYAQMGTKGIRDPYIFRKQDGKFGIVATDMLGTNWGDTSQYIHYWESEDLINFTERLIKVHNKSNMHAWAPEVFYDENRKQYGIYWAGNTDYNRIYVNYTTDFDTVSDCQVFFDPGYDVIDAHIVSDKGMYYLFFKDERASGKAIKVARSSSLTPNSFTVFTPNFITSPNTEGPFVFKDNNSDSWYMYVDIYSNNGIFECWKTNDLNALSWTKVTGISVPPGVRHGSVVKVNRWELETAISRKVVTPPAPTPPPVLKGDVNADGVINSSDIMVLKRFLLRTITLTEEMLLNADTNGDGAVNSSDFTLLKRYILRSIDSFPV	failed
KSNEIVELSVQKWINELRDANNKLQQEVSELKKKEVNLESSLSLLSSTLESTAIGIVAINFEGDILNYNQKFAEMWKLPQQLILSKKCPRCKAFFEGQMKDPETFNRLIWAVSSTSNIESYDVLELKDGRVFAHYSQPQWLGQ	failed
MIKNDGKMMRVRIAKERSDLCDLTAAAIKATYNTRNPCEVERCIDVLNHLKSLSLSVKDIRLSESIVKLETLRSHRNPRIRKEAQALFHSWLKTFYAHGSDNSFTAALTKDRLKMKKHVLKMCSELKKKEEPGTMARQVTAFSVLKNKEDERSQTTVEAVESKTTIKLSELNRKEDQRSLTRETEKNKARNSFLALKQKEDHRSETCVEKYFKKETKTNLKQLNMKTRRVSLEDVTTKKPHEDGSLIKKTKTEKELKKKKVDEMVKLFEAAKKAADVANAKGVLSGKPEVSRCIDALSLLMKINITPKPKEPRRMMDKLEGLTKHKDRKICHVASALLHLWRQRIREQERKKSVTKASSKTRKLSYVKIIWLEQIKVSCGFKRF	failed
TKDFTWQTDWTFSLNNEKIKELAGGATYDSTGPWMVGEPLNSFYDFQYDRIWQNTQEDNHLMDVYRSLGLTFLPGQYKIVDQ	failed
MTKPQGAVAEKATPAVPKPQKVRVIVEFNKESILDYATEQKKTVAQLNQADVEKKLQSIKQEQDKVLKNIEKSVHFDSSKVKRYDAIINGVALDIQAQEIEKLKTIADVRRVYVSQEYVQTKPLLSSSGQLIGLPEVWNNSQYKGEGTVVAVIDSGVDFKHQALKIKEPNRAKYNKTSIEKLIHEKNLKGKFYSEKVPYGYNYYDYNDNLKDSYGVMHGMHVTGIVGANDDNQKLYGVAPNAQILAMKVFSDDQQNPTTFTDVWLKALDDAILLKADVVNMSLGTPAGFVHEGKDYPELEVIARACKAGIVIAVAAGNEGNITDGNTYGVKPLAENYDTALIANPALDDNTLAVASMENLKKHAHVLKFKDKKSGTEVTEVINLHVAPNASKTIIGLAVDLGAGAPSELSKHFDLSGKIAMLEIPEDNKSNGFLEKVQAITKLNPAAILLYNNAKVKDDLGSQLLVESEAAKFNIARITRSTYNNIKNNSNKIITILTERQAIDNSLAGQLSSYSSWGPTPDLRLKPEITAPGGHIFSTVEDNQYADKSGTSMAAPQVAGAAAVLKQYITDKKIPVDNAADFIKLLLMNTAQPIINKQSKDGKTPYFVRQQGSGAMNLAKALVTTVVATVTGTNDNNADGKLELRELKEKKFKARILLRNFGKTNKTYIISSEAIADPVDEKGFRTQNSEHLVSKKADAVTRKVTVEAGKTLAVDLDVDYSDAEALTRNNFLEGYLNLKDTEGVADLHLPFLGFYGSWTEQKAIDAFEGISEIGNGDKKRRVQFYVNKETNKTSSTFTTNGMLSLPIYNNTVFFSPNSPFYDKAGVRIAALRNMEYVQYSIIDPDTNKEVRVLGRSHDVRKLYRLDYRNSFAMMPDSIWDGKIKD	failed
MMRPKVYFKTFGCRTNLFDTQIMIKNLQNFELTEIEESADIVVVNSCTVTNGADSGVRSYLHRLKSEGKRVYLTGCGVLTRGEEIFTQELAFGVFGHSYKEQIDSLLSQKTRFSFKGDLEHIDSTVITEFIGKSRAFVKVQEGCDFSCSYCIIPSVRGKARSLPVDRIVSQVEILAQHGFGEFVLTGTNVGSYGKESGLNVAKLLKALSQIKGVKRLRLGSLEPSQIDAEFMELLEEPFMARHLHIALQHTSPKMLQIMNRRNEAQGDLALFERLAQKGYALGTDFILGHPGESEEVWKEAWERFVAFPLTHLHAFVYSPREGTPSSLMKDRISGNIAKERMRILQERVRENNHHFRQKGEKLWVLIESEREGGLYQGLDQFFNRIEIRSSDSLAGRWLEVSDYEAESEINRAELL	failed
MPPPLPYDAMRSVWTDTAAPAMATAPLAGHADCDVAIVGAGITGLSAALHLAERGLRACVLEARDPGWGASGRNGGQVIPGIKHDPDEILARHGRERGEPLLHMVGTAADTVFDLIDRYGLDLVQAQIRLAAGERLDRVVPADLQPSGHAIELRVYAEDPVRFIPSPGTLAVFELPQGPGVRTETGYHAGNAVSPHYDPMIAKIIVHGADRAQAIARAEQALADTEIAGVKTNLPFLARALAFEPWRQGRLHTGIVARTLAEPAPAALTALEHHHHHH	failed
QSGATAKVSVLYIGPMEAPADAAQRLGLPAGTQVLARRRLYFRNGTPVETASSYLPWDVVKDIPELFAENPGGGGIYARLEDHGHEFAEFVETLQARPASKAEASELALSPGAPVVHLIREARTTAGVVVEVCDTLMAADQFVFEYRIPAAD	failed
MDTDWSNLAVRLERLLERFERIIDRHDPVLPRDPAFFDGAIAFRWRRSGEQGTFEPVTHPHLPDPADLVGIDLVREDLIRNTAQFMDGYPANNVLLWGERGTGKSTCVKGMLRLFADRGLRLVEVQRDDLMSLPALIAALRSVPRRFILFCDDLSFGEGEGGYRELKALLEGSIEAKPTNILFYATSNRRHLLPERMEDNLSSEIHPEEAVSEKLSLADRFGMALGFYPFSQDVYLSIVERYAEKFALPMEREALRKEAHLWAMYRGSRSGRSARQFIDDLAGRLGVRLNDRLEHHHHHH	failed
MAETDPKTVQDLTSVVQTLLQQMQDKFQTMSDQIIGRIDDMSSRIDDLEKNIADLMTQAGVEELESENKIPATQKS	failed
MIDMEQDNRNQINGENISNASAGGTQPEQNTQSSQNMHPEQTGQGTQQDSLYHYSYMNNKGDARFDRPAGETSQQRMGAQTQNMRETANVQGGTQNTAYSGFQRNVNGMEAWYDSQRMNAGYQNPENNVGGYGQGSQSVPHKTETSHKHEKQPKPKKNSGKKSGVGKKVAGVVAAAVVFGLVAGVVFQGVRYGSDKMLNKNSATTEASADATTENNAPQLKQASSDATNTVYDVATVAQKVMPSIVSITGTYVTTYDYWFNSYQQESTGAGSGIIIGKDDQYLYLATNYHVVQNAKSLSVTFVNDKSADATVKGYVENNDIAVVTVKLADISDDTLNEIKEIQVGSSDDLSVGDPCVAIGNALGYGQSVTVGYISALNREISASDETVKVLQTDAAINPGNSGGALVNMQGELIGINTAKYSDTSVEGMGYALPISDIQDIINDLIAGKKVASDGTASGQAYLGISAQTITSQYSQLLNMPEGVYISSVEQGSAAEECGLQSGDIICSLDGEDIADMDTFHDRIVACKPGDKVTIVYYRNNNGNYEKQTTTATLQEKQ	failed
MRKRIEWIDIAKGSAILAVVIGHTLGPYNGQFFGSLIFAFHMPIFFMLSGYLYRSRPARQECQRGIINLLLPYLATAVVLLVVSAIARLLPNPLLNAYFPSWRQGLIATAYGAGSAVFNPWHWQVQPIGAVWFLLSMFIALQLFNGVMLLTARRHQRWRQAIVRGGVFAIFAILGGWLGHAAYLPWAVNAALLAQLFLYAGYLVKQTALLSRISSAWYLLFTFMWLVSAFQGYFALTVPTSPNLLISVMGGVAGSLCIIRVSDWLSHYPNARPIKWLKRYGQLSLVVLCFHLIDLNVIGIEGWLTNHLITHMGPLVTTIIAISYRIGFVTVAMLAIPHLPGIRACFLPRQYLFRRLQRR	failed
MTQRAGIHPSARRPSAFDPPIGCARPAMTDTLSLRPIVGRRRLWELDPHFHCSIVGTCLTMSDLRKLATKTRLSVPADAPDYRLHGVFVRAAGAAGPAEKGIAKLMDKDLERRHTRALAQFRKAADNDALEALWDGAREAGDIPGPYWALMCHPLASRTLLERAFGEVHMLSHLMGAANRADVRRLAEMERETEAVEDRLAEAEARRLREIEIKQGEIGQLRAAIEAERARTRALVRRLEEAGEGGCRDLRIQTLEATMEGLRERLNREAWRADRLQGKLAEAERLLTEVRADRDDLRRRLAEQAEDLRTLEDLALDDDGEAGDRPPLDLGGRTILYVGGRPRTVPSLRKLVEDSNGRFAHHDAGREDGRAHLGEVLSGADIVICPVDCISHDACLKAKRACLKRGTPFVPLSSAGLGAFARCLRETAPLFAPANDGAALAAELEHHHHHH	failed
MANDGYFEPTQELSDETRDMHRAIISLREELEAVDLYNQRVNACKDKELKAILAHNRDEEKEHAAMLLEWIRRCDPAFDKELKDYLFTNKPIAHE	not failed
MWVWNMVEIKIVFGSSENMEEIPDNSVHLVVTSPPYYNAPFDFPGLFSSYEEYLNLLRKVGKELMRVLQPGRYACFVTQDVRIEGKLYPIVSDLIHIMVHELGFEYQDKIIWRKPEGYIRISRRSGVLIQHPYPMYYYPDNIYEEVVIFKKPGKFDRSAVPPEIREKSKISISKFQAEKWYLSVWDIKNVLPHEKWSKYTAPFPEELAERLIRLYSYVGETVLDPFLGSGTTCVVSRKLHRNCIGYEIDLELREIIEERLG	failed
MVAYPGPMPRSPSPGQTPDAPTSGGGSTDSTRQRIVAAAKEEFARHGIAGARVDRIAKQARTSKERVYAYFRSKEALYAHVAERETTALIEATQLDPADLPGYAGILFDHFAARPDHYRLITWGRLELAESADNTSGPLQATIAGKLDKLRDAQRIGLLDPAWDPVDVLALINQIAMTWAGQPEIAAAAADQAVDPSVTARRAALVTAVEHMFPRPDRDQRPNRLT	not failed
SLEPAQANMDISTGHMILAYMEDHLRNRDRLAKEWQALCAYQAEPNTCATAQGEGNIKKNRHPDFLPYDHARIKLKVESSPSRSDYINASPIIEHDPRMPAYIATQGPLSHTIADFWQMVWESGCTVIVMLTPLVEDGVKQCDRYWPDEGASLYHVYEVNLVSEHIWCEDFLVRSFYLKNVQTQETRTLTQFHFLSWPAEGTPASTRPLLDFRRKVNKCYRGRSCPIIVHCSDGAGRTGTYILIDMVLNRMAKGVKEIDIAATLEHVRDQRPGLVRSKDQFEFALTAVAEEVNAILKALPQ	not failed
MMMEEKLVINELELGKELANRLMNNLKHTSSVDSNKTLISDILRIYQNAIFMLSFNQDKNILKRSLEIDGKDSKNVFKKRKVSEKNTEKVKVFVATEQENGSIDDGHCWRKYGQKEIHGSKNPRAYYRCTHRFTQDCLAVKQVQKSDTDPSLFEVKYLGNHTCNNITSPKTTTNFSVSLTNTNIFEGNRVHVTEQSEDMKPTKSEEVMISLEDLENKKNIFRTFSFSNHEIENGVWKSNLFLGNFVEDLSPATSGSAITSEVLSAPAAVENSETADSYFSSLDNIIDFGQDWLWS	failed
AIKHVKGNGKRTLYIFSDPDCPYCQRLEKELTAVDNVTIYLFLFPLTTLHPNAETIATQIWCSKNQYQAWQDYLLNHKAPTASQKCSTPIQKNLALGQKLNINGTPTMYLKNGERIAGAMQAGQLNTLLDQAQ	failed

Reference: a protein production outcome set (Wang et al. 2014)
